Experiments:
Assay in all cases: fluorescence anisotropy
[1] = target: NusB D118N (NusB101) (Escherichia coli, UniProt P0A780 1-139, D118N)
[2] = target: NusB (Escherichia coli, UniProt P0A780 1-139)
[3] = target: NusB D118A (Escherichia coli, UniProt P0A780 1-139, D118A)
[4] = target: NusB D118K (Escherichia coli, UniProt P0A780 1-139, D118K)
[5] = target: NusB D118R (Escherichia coli, UniProt P0A780 1-139, D118R)
[6] = target: NusB K2E (Escherichia coli, UniProt P0A780 1-139, K2E)

Binder	Kd [1]	Kd [2]	binding result [1]	binding result [2]	also measured
CGCUCUUA (ssRNA) [nutR BoxA]	290 ± 15 nM	1600 ± 100 nM			
AAAAUUAA (ssRNA) [nutL spacer]			no binding	no binding	
CACAUUCCA (ssRNA) [nutR spacer]			no binding	no binding	
CGCUCUUACACAUUCCA (ssRNA) [nutR BoxA-spacer]					binding result [3]: no binding; binding result [4]: no binding; binding result [5]: no binding
CGCUCUUAAAAAUUAA (ssRNA) [nutL BoxA-spacer]		2200 ± 800 nM			Kd [6]: 5.1 µM
CGCUAUUACACAUUCCA (ssRNA) [nutR BoxA16-spacer (C38A)]		5100 ± 1400 nM			
CGCUCGUACACAUUCCA (ssRNA) [nutR BoxA(U39G)-spacer]		1600 ± 800 nM			
UGCUCUUUA (ssRNA) [rrnG BoxA]	50 ± 15 nM	200 ± 10 nM			
CACUGCUCUUUAACAAUUA (ssRNA) [rrnG BoxA-spacer]	24 ± 4 nM	130 ± 20 nM			Kd [6]: 3.6 µM
AUAGCGGCCACAUUCCA (ssRNA) [nutR BoxA69-spacer (boxA transversion)]			no binding	no binding	

From publication PMC2800207
